A word on the Kd: it is the free concentration of one partner at which half of the binding sites on the other are occupied at equilibrium, for simple one-to-one binding. The low end stands for higher affinity, the high end for lower affinity.

Experiment [1] concerns the target T1, human glycoprotein Ib alpha (GPIba) on platelets (human, UniProt P07359 17-652).
T1 construct: whole, on cells; On platelets GPIba is part of the GPIb-IX-V complex; also called human GPIba; washed human platelets
The experiment can be described thus: flow cytometry on washed human platelets, FITC goat anti-mouse IgG.

In experiment [2] the target is T2, purified human GPIb-IX complex (human, UniProt P07359 17-652; P13224 26-206; P14770 17-177).
T2 construct: mature; Native complex purified from outdated human apheresis platelets; also called purified human glycoprotein (GP)Ib-IX; immobilized GPIb-IX
The experiment can be described thus: ELISA, purified mAb titrated on immobilized purified human GPIb-IX, fitted Kd. Background: An ELISA detects its analyte on a solid surface through an enzyme-linked reagent.
Description: (A, C, D) GPIb-IX or the peptide was immobilized in microtiter plates. Purified mAbs, each identified by the clone name and colored as indicated, and negative controls, in the form of mouse IgG or BSA, were added to the coated wells. The bound Ab was detected with biotinylated goat anti-mouse IgG. Data are presented as the mean SD (n=3).
After incubation in the blocking buffer (20 mmol L⁻¹ HEPES, 0.2 mol L⁻¹ NaCl, 0.05% Tween-20, 2% BSA, pH 7.4) at room temperature (RT) for 2 h, different doses of normal mouse IgG or purified mAb dissolved in the blocking buffer were added to the wells and incubated for 1 h. The wells were then washed three times with the blocking buffer without BSA and incubated for an additional 1 h with biotinylated goat anti-mouse IgG (1:50 in the blocking buffer). After three washes, the wells were incubated for 1 h with streptavidin alkaline phosphatase (1:2000 in the blocking buffer).

For experiment [3], the target named is T3, wild-type murine GPIba on WT (C57BL/6J) mouse platelets (mouse, UniProt O35930 17-734).
T3 construct: whole, on cells; also called mouse GPIba; WT mouse platelets
T3 sequence (looked up): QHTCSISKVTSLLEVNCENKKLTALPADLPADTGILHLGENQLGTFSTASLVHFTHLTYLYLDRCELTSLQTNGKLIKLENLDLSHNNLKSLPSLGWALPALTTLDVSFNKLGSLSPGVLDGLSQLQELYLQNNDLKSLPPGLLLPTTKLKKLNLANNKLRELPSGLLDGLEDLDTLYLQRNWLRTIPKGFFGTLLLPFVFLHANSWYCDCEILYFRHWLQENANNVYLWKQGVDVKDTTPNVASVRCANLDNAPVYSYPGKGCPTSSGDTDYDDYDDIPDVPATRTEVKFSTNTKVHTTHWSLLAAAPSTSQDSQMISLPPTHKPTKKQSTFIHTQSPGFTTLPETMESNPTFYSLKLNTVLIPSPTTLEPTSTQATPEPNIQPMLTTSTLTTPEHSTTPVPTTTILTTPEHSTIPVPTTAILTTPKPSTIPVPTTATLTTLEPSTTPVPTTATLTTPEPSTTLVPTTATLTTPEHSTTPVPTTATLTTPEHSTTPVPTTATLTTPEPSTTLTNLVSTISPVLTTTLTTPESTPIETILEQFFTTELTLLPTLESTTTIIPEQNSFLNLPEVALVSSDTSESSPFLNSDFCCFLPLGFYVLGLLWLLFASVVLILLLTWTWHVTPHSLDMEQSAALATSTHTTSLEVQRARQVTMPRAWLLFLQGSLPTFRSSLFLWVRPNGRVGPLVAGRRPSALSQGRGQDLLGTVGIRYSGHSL
The experiment can be described thus: flow cytometry, biotin-labeled 5G6 on mouse whole blood, gated on platelets, FITC-streptavidin. For orientation: In flow cytometry, cells or beads pass a laser one at a time.
Description: The binding to platelets was analyzed by flow cytometry with gating specific on platelets.

B1: monoclonal antibody 3D1 (antibody, V domains shown)
VH: QIQLVQSGPELKKPGETVKISCKASGYTFTDFAMHWVKQAPRKGLKWMGWINTETGEPTYADDFKGRFAFSLGTSASTAFLQINNLKNEDTATYFCSSDPLDYWGQGTTLTVSS
VL: DVVVTQTPLSLPVSFGDQVSISCRSSQSLTNSYGNTYLSWFLHKPGQSPQLLIYEISNRFSGVPDRFSGSGSGTDFTLKISTIKPEDLGIYYCLQGTHQPWTFGGGTKLEIK
notes: Mouse hybridoma mAb; also called 3D1.C1; 3D1.E3
With B1, in experiment [1], the binding result is on record as “binds”.

B2: monoclonal antibody 5G6 (antibody, V domains shown)
VH: QVTLKESGPGILQPSQTLSLTCSFSGFSLSTSNMGVVWIRQPSGKGLEWLLHILWNDGKFYNPALKSRLTISKDTYNNQVFLKIANVDTADTATYYCARLFTTTTSGYFDVWGAGTTVTVSS
VL: DIQMTQSPASLSASVGETVTITCRASGNIYNYLAWYQQKQGKSPQLLVYNAKTLADGVPSRFSGSGSGTQYSLKINSLQPEDFGSYFCQHFWDTPWTFGGGTKLEIK
notes: Mouse hybridoma mAb raised against the human GPIba Glu455-Phe478 peptide; also called clone 5G6; 5G6.B4
B2: binding in experiment [2] was put at a Kd of 3.29 nM. For the same molecule, the binding result in experiment [3] was “no binding (tested: 4 µg mL^-1)”.

B3: monoclonal antibody 15C6 (antibody, V domains shown)
VH: QVTLKESGPGILQPSQTLSLTCSFSGFSLSTSNMGVVWIRQSSGKGLEWLLHILWNDGKFYNPALKSRLTISKDTYNNQVFLKIANVDTADTATYYCARLFSTTTSGYFDVWGAGTTVTVSS
VL: DIQMTQSPASLSASVGETVTITCRASGNIHNYLAWYQQKQGKSPQLLVYNAETLADGVPSRFSGSESGTQYSLKINSLQPEDFGTYYCQHFWDTPWTFGGGTKLEIK
notes: Mouse hybridoma mAb; also called 15C6.D3
On to B3, for which the dissociation constant (Kd) in experiment [2] was 28.2 nM.

For the origin of these results see US20160009801A1 (EMORY UNIVERSITY, published 2016).
